T1: human IL-10 receptor (hIL-10R alpha and beta chains) on HEK-Blue IL-10 reporter cells (human, UniProt Q13651 22-578; Q08334 20-325)
T1 sequence 1: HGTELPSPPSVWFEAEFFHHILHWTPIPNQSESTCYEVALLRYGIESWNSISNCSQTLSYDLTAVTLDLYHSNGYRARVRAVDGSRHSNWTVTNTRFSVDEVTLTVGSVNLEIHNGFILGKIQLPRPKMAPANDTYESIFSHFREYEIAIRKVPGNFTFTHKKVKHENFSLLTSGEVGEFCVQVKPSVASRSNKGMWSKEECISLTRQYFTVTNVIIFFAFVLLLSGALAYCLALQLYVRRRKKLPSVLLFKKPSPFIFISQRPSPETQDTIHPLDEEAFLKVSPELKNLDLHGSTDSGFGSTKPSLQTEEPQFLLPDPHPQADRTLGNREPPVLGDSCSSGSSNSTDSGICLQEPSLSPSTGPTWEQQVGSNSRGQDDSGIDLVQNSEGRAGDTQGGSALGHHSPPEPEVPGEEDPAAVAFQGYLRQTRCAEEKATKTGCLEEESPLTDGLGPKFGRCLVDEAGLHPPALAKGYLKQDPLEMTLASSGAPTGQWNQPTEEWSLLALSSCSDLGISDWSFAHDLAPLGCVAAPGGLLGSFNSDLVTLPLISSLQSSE
T1 sequence 2: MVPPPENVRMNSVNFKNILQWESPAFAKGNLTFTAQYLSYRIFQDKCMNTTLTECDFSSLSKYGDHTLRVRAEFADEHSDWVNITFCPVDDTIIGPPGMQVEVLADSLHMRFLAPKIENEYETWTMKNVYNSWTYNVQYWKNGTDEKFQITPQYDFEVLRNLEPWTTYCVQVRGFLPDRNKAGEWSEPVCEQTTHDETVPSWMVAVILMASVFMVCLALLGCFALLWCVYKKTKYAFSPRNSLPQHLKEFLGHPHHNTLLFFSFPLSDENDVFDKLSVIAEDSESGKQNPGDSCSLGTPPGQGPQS

B1: IL10R binding molecule of SEQ ID NO: 307 (bispecific antibody)
chain: QVQLQESGGGSVQAGGSLRLSCAASGYTYSSGCMGWFRQAPGKEREAVAAINSDGSTSYADSVKGRFTISKDNAKNTLYLQMNSLKPEDTAMYYCAAEPYCSGGYPRWSVAEFGYWGQGTQVTVSSGGGSQVQLQESGGGSVQAGGSLRLSCAASGYTYSMYCMGWFRQAPGKEREGVAQINSDGSTSYADSVKGRFTISKDNAKNTLYLQMNSLKPEDTAMYYCAADSRVYGGSWYERLCGPYTYEYNYWGQGTQVTVSSASHHHHHH
B2: IL10R binding molecule of SEQ ID NO: 259 (bispecific antibody)
chain: QVQLQESGGGSVQAGGSLRLSCAASRYLYSIDYMAWFRQSPGKEREPVAVIYTASGATFYPDSVKGRFTISQDNAKMTVYLQMNSLKSEDTAMYYCAAVRKTDSYLFDAQSFTYWGQGTQVTVSSGGGSQVQLQESGGGSVQAGGSLRLSCTVSRYTASVNYMGWFRQAPGKEREGVATIFTGAGTTYYANSVKGRFTISRDNAKNTAYLQMNSLKPEDTAIYYCAVDFRGGLLYRPAYEYTYRGQGTQVTVSSASHHHHHH
B3: IL10R binding molecule of SEQ ID NO: 313 (bispecific antibody)
chain: QVQLQESGGGSVQAGGSLRLSCAASGYTYSSYCMGWFRQAPGKEREGVAHIDSDGSTSYADSVKGRFTISKDNAKNTLYLQMNSLKPEDTAMYYCAADPIPGPGYCDGGPNKYWGQGTQVTVSSGGGSQVQLQESGGGSVQAGGSLRLSCAASRFTYSSYCMGWFRQAPGKEREGVASIDSDGSTSYTDSVKGRFTISKDNAKNTLYLQMNSLKPEDTAMYYCALDLMSTVVPGFCGFLLSAGMDYWGKGTQVTVSSASHHHHHH
B4: IL10R binding molecule of SEQ ID NO: 311 (bispecific antibody)
chain: QVQLQESGGGSVQAGGSLRLSCAASGYTYSSGCMGWFRQAPGKEREAVAAINSDGSTSYADSVKGRFTISKDNAKNTLYLQMNSLKPEDTAMYYCAAEPYCSGGYPRWSVAEFGYWGQGTQVTVSSGGGSQVQLQESGGGSVQAGGSLRLSCAASGYSNCSYDMTWYRQAPGKEREFVSAIHSDGSTRYADSVKGRFFISQDNAKNTVYLQMNSLKPEDTAMYYCKTDPLHCRAHGGSWYSVRANYWGQGTQVTVSSASHHHHHH
B5: IL10R binding molecule of SEQ ID NO: 304 (bispecific antibody)
chain: QVQLQESGGGSVQAGGSLRLSCAASGYSNCSYDMTWYRQAPGKEREFVSAIHSDGSTRYADSVKGRFFISQDNAKNTVYLQMNSLKPEDTAMYYCKTDPLHCRAHGGSWYSVRANYWGQGTQVTVSSGGGSQVQLQESGGGSVQTGGSLRLSCAASGYTYLRGCMGWFRQAPGKEREGVAVMDVVGDRRSYIDSVKGRFTISRDNAANSVYLQMDNLKPEDTAMYYCTAGPNCVGWRSGLDYWGQGTQVTVSSASHHHHHH
B6: IL10R binding molecule of SEQ ID NO: 316 (bispecific antibody)
chain: QVQLQESGGGSVQAGGSLRLSCAASGYTYSSYCMGWFRQAPGKEREGVAHIDSDGSTSYADSVKGRFTISKDNAKNTLYLQMNSLKPEDTAMYYCAADPIPGPGYCDGGPNKYWGQGTQVTVSSGGGSQVQLQESGGGSVQAGGSLRLSCTVSGYTYSSNCMGWFRQAPGKEREGVATIYTGGGNTYYADSVKGRFTISQDNAKNTVYLQMNNLKPEDTAMYYCAAEPLSRVYGGSCPTPTFDYWGQGTQVTVSSASHHHHHH
B7: IL10R binding molecule of SEQ ID NO: 308 (bispecific antibody)
chain: QVQLQESGGGSVQAGGSLRLSCAASGYTYSSGCMGWFRQAPGKEREAVAAINSDGSTSYADSVKGRFTISKDNAKNTLYLQMNSLKPEDTAMYYCAAEPYCSGGYPRWSVAEFGYWGQGTQVTVSSGGGSQVQLQESGGGSVQAGGSLRLSCAVSGYAYSTYCMGWFRQAPGKEREGVAAIDSGGSTSYADSVKGRFTISKDNAKNTLYLRMNSLKPEDTAMYYCAAVPPPPDGGSCLFLGPEIKVSKADFRYWGQGTQVTVSSASHHHHHH
B8: wild-type human IL-10 (Recombinant Animal-Free Human IL-10, Shenandoah Biotechnology) (ligand)
chain: SPGQGTQSENSCTHFPGNLPNMLRDLRDAFSRVKTFFQMKDQLDNLLLKESLLEDFKGYLGCQALSEMIQFYLEEVMPQAENQDPDIKAHVNSLGENLKTLRLRLRRCHRFLPCENKSKAVEQVKNAFNKLQEKGIYKAMSEFDIFINYIEAYMTMKIRN
B9: IL10R binding molecule of SEQ ID NO: 306 (bispecific antibody)
chain: QVQLQESGGGSVQAGGSLRLSCAASGYTYSSGCMGWFRQAPGKEREAVAAINSDGSTSYADSVKGRFTISKDNAKNTLYLQMNSLKPEDTAMYYCAAEPYCSGGYPRWSVAEFGYWGQGTQVTVSSGGGSQVQLQESGGGSVQAGGSLRLSCAASRFTYSSYCMGWFRQAPGKEREGVASIDSDGSTSYTDSVKGRFTISKDNAKNTLYLQMNSLKPEDTAMYYCALDLMSTVVPGFCGFLLSAGMDYWGKGTQVTVSSASHHHHHH
B10: IL10R binding molecule of SEQ ID NO: 312 (bispecific antibody)
chain: QVQLQESGGGSVQAGGSLRLSCAASGYTYSSYCMGWFRQAPGKEREGVAHIDSDGSTSYADSVKGRFTISKDNAKNTLYLQMNSLKPEDTAMYYCAADPIPGPGYCDGGPNKYWGQGTQVTVSSGGGSQVQLQESGGGSVQAGGSLRLSCAASRYLYSIDYMAWFRQSPGKEREPVAVIYTASGATFYPDSVKGRFTISQDNAKMTVYLQMNSLKSEDTAMYYCAAVRKTDSYLFDAQSFTYWGQGTQVTVSSASHHHHHH
B11: IL10R binding molecule of SEQ ID NO: 309 (bispecific antibody)
chain: QVQLQESGGGSVQAGGSLRLSCAASGYTYSSGCMGWFRQAPGKEREAVAAINSDGSTSYADSVKGRFTISKDNAKNTLYLQMNSLKPEDTAMYYCAAEPYCSGGYPRWSVAEFGYWGQGTQVTVSSGGGSQVQLQESGGGSVQAGGSLRLSCTVSGYTYSSNCMGWFRQAPGKEREGVATIYTGGGNTYYADSVKGRFTISQDNAKNTVYLQMNNLKPEDTAMYYCAAEPLSRVYGGSCPTPTFDYWGQGTQVTVSSASHHHHHH
B12: IL10R binding molecule of SEQ ID NO: 310 (bispecific antibody)
chain: QVQLQESGGGSVQAGGSLRLSCAASGYTYSSGCMGWFRQAPGKEREAVAAINSDGSTSYADSVKGRFTISKDNAKNTLYLQMNSLKPEDTAMYYCAAEPYCSGGYPRWSVAEFGYWGQGTQVTVSSGGGSQVQLQESGGGSVQAGGSLRLSCGASGYTYSSYCMGWFRQVPGKEREGVAVIDSDGSTSYADSVKGRFTISKDNGKNTLYLQMNSLKPEDTAMYYCAADLGHYRPPCGVLYLGMDYWGKGTQVTVSSASHHHHHH
B13: IL10R binding molecule of SEQ ID NO: 260 (bispecific antibody)
chain: QVQLQESGGGSVQAGGSLRLSCAASRYLYSIDYMAWFRQSPGKEREPVAVIYTASGATFYPDSVKGRFTISQDNAKMTVYLQMNSLKSEDTAMYYCAAVRKTDSYLFDAQSFTYWGQGTQVTVSSGGGSQVQLQESGGGSVEAGGSLRLSCAASGYTHSSYCMGWFRQAPGKEREGVAAIDVDGSTTYADSVKGRFTISKDNAKNTLYLQMNSLKPEDTGMYYCAAEFADCSSNYFLPPGAVRYWGQGTQVTVSSASHHHHHH
B14: IL10R binding molecule of SEQ ID NO: 314 (bispecific antibody)
chain: QVQLQESGGGSVQAGGSLRLSCAASGYTYSSYCMGWFRQAPGKEREGVAHIDSDGSTSYADSVKGRFTISKDNAKNTLYLQMNSLKPEDTAMYYCAADPIPGPGYCDGGPNKYWGQGTQVTVSSGGGSQVQLQESGGGSVQAGGSLRLSCAASGYTYSMYCMGWFRQAPGKEREGVAQINSDGSTSYADSVKGRFTISKDNAKNTLYLQMNSLKPEDTAMYYCAADSRVYGGSWYERLCGPYTYEYNYWGQGTQVTVSSASHHHHHH
B15: IL10R binding molecule of SEQ ID NO: 315 (bispecific antibody)
chain: QVQLQESGGGSVQAGGSLRLSCAASGYTYSSYCMGWFRQAPGKEREGVAHIDSDGSTSYADSVKGRFTISKDNAKNTLYLQMNSLKPEDTAMYYCAADPIPGPGYCDGGPNKYWGQGTQVTVSSGGGSQVQLQESGGGSVQAGGSLRLSCAVSGYAYSTYCMGWFRQAPGKEREGVAAIDSGGSTSYADSVKGRFTISKDNAKNTLYLRMNSLKPEDTAMYYCAAVPPPPDGGSCLFLGPEIKVSKADFRYWGQGTQVTVSSASHHHHHH
B16: IL10R binding molecule of SEQ ID NO: 305 (bispecific antibody)
chain: QVQLQESGGGSVQAGGSLRLSCAASGYTYSSGCMGWFRQAPGKEREAVAAINSDGSTSYADSVKGRFTISKDNAKNTLYLQMNSLKPEDTAMYYCAAEPYCSGGYPRWSVAEFGYWGQGTQVTVSSGGGSQVQLQESGGGSVQAGGSLRLSCAASRYLYSIDYMAWFRQSPGKEREPVAVIYTASGATFYPDSVKGRFTISQDNAKMTVYLQMNSLKSEDTAMYYCAAVRKTDSYLFDAQSFTYWGQGTQVTVSSASHHHHHH

These binders were tested against T1, human IL-10 receptor (hIL-10R alpha and …) (assay: cell-based or functional assay).
With B1 the “Abs 630 (25 nM)” value was 0.44 Abs 630 and the “Abs 630 (100 nM)” value was 0.34 Abs 630. With B2 the “Abs 630 (25 nM)” value was 1.85 Abs 630 and the “Abs 630 (100 nM)” value was 1.13 Abs 630. B3 was tested, and the “Abs 630 (25 nM)” value was 0.47 Abs 630 and the “Abs 630 (100 nM)” value was 0.39 Abs 630. In the case of B4, the “Abs 630 (25 nM)” value is reported as 0.48 Abs 630 and the “Abs 630 (100 nM)” value is reported as 0.4 Abs 630. B5 was tested, and the “Abs 630 (25 nM)” value was 1.96 Abs 630 and the “Abs 630 (100 nM)” value was 2.06 Abs 630. In the case of B6, the “Abs 630 (25 nM)” value is reported as 0.48 Abs 630 and the “Abs 630 (100 nM)” value is reported as 0.39 Abs 630. With B7 the “Abs 630 (25 nM)” value was 0.48 Abs 630 and the “Abs 630 (100 nM)” value was 0.39 Abs 630. For B8, the “Abs 630 (25 nM)” value was 2.08 Abs 630 and the “Abs 630 (100 nM)” value was 2.04 Abs 630. In the case of B9, the “Abs 630 (25 nM)” value is reported as 0.69 Abs 630 and the “Abs 630 (100 nM)” value is reported as 0.49 Abs 630. For B10, the “Abs 630 (25 nM)” value was 0.48 Abs 630 and the “Abs 630 (100 nM)” value was 0.39 Abs 630. In the case of B11, the “Abs 630 (25 nM)” value is reported as 0.45 Abs 630 and the “Abs 630 (100 nM)” value is reported as 0.37 Abs 630. With B12 the “Abs 630 (25 nM)” value was 0.51 Abs 630 and the “Abs 630 (100 nM)” value was 0.44 Abs 630. With B13 the “Abs 630 (25 nM)” value was 0.49 Abs 630 and the “Abs 630 (100 nM)” value was 0.39 Abs 630. With B14 the “Abs 630 (25 nM)” value was 0.49 Abs 630 and the “Abs 630 (100 nM)” value was 0.42 Abs 630. For B15, the “Abs 630 (25 nM)” value was 0.51 Abs 630 and the “Abs 630 (100 nM)” value was 0.41 Abs 630. For B16, the “Abs 630 (25 nM)” value was 0.59 Abs 630 and the “Abs 630 (100 nM)” value was 0.35 Abs 630.

Source: patent US20250163167A1 (SYNTHEKINE, published 2025)
